Here are results for 9 molecules from paper PMC7598594 (Toxins, 2020).

Assay in all cases: ELISA
Common to all, as to conditions: both partners purified
A general note: ELISA stands for enzyme-linked immunosorbent assay.

Assay [1] has as its target T1, light chain of BoNT/E1 (LC/E) (Clostridium botulinum, BoNT/E subtype …, UniProt Q00496).
T1 construct: source: E. coli BL21(DE3), purified (Ni-NTA, Streptactin, SEC)

For assay [2], the target named is T2, carboxyl terminal domain of the BoNT/E heavy chain (HCE) (Clostridium botulinum, BoNT/E (subtype …)).
Assay [3] deals with T1, light chain of BoNT/E1 (LC/E). The source holds these as a separate data set.
The target of assay [4] is T2, carboxyl terminal domain of the BoNT/E …. The source holds these as a separate data set.

T1 sequence (Q00496 2-403): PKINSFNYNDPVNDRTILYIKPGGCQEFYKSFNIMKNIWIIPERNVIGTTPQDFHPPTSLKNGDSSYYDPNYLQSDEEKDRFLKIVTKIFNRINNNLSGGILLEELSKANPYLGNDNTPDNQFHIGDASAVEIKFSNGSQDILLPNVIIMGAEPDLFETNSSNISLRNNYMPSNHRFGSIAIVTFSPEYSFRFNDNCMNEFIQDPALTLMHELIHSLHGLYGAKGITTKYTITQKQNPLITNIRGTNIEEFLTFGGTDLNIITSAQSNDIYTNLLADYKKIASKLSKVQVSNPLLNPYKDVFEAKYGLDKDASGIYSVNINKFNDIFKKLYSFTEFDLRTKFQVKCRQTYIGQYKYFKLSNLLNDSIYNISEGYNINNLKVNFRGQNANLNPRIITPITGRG

B1: JSI-G9 (VHH)
VHH: SGGGMVQAGGSLRLSCAASGRTASLDGMGWFRQAPGKEREFVGSINWRIGTTYYIDSVQGRFTISRDNARNTVYLQMISLKPEDTAVYYCAARLRRTDLISSPASYEYWGHGTQVTVSS
notes: source: E. coli, purified
Consider B1, for which the binding result in assay [1] was “no binding (tested: 125 nM)”.

B2: JSI-F2 (VHH)
VHH: SGGGLVQAGGSLRLSCAASGGTVSKYPMGWFRQAPGQEREFVAALSRDTDYTYYADSVKGRFTISRDNAKNTVYLQMNSLKREDTALYYCAAGSTDLKYSASVYADDYDYWGQGTQVTVSS
notes: source: E. coli, purified
Turning to B2, in assay [2], the EC50 was determined as 2 nM. Besides, the binding result in assay [1] is “no binding (tested: 125 nM)”.

B3: JSI-H9 (VHH)
VHH: SGGGSVQAGGSLGLTCQGSGDAVRRGWFRQAPGKEREFVAAITSYGGTTFYADSVKGRFTVSRDNAKNTVYLQMISLKPEDTAVYYCAAASRPTGWPYEYDVWGQGTQVTVSS
notes: source: E. coli, purified
Consider B3, for which the binding result in assay [1] is recorded as “no binding (tested: 125 nM)”.

B4: JSI-F6 (VHH)
VHH: SGGGLVQAGGSLRVSCAASGRTFSTYAMGWFRQAPGKEREFVAAITKSGDYAYYADAVKGRFTISRDNAKNTVSLQMNSLKDEDTAVYYCAAHRSPLYSASVYDRDYDYWGQGTQVTVSS
notes: source: E. coli, purified
In assay [2], B4 registered an EC50 of 3 nM. Further, the binding result in assay [1] is “no binding (tested: 125 nM)”.

B5: JSI-C7 (VHH)
VHH: SGGGLMQAGGSLRLACAASGRPFSTYFMGWFRQAPGKERDFVAVIDWSDGSTDYADSVKGRFTISRDNAKNTVYLQMNSLKPEDTAVYYCAARGSYLYTWPLEPDEYDYWGQGTQVTVSS
notes: source: E. coli, purified
Regarding B5, the binding result in assay [1] was “no binding (tested: 125 nM)”.

B6: JLG-G12 (VHH)
VHH: QLQLVETGGGLVQAGGSLRLSCAASGRTFSSYAVGWFRQAPGKEREFVAAISWSGSYAYYADSVKGRFTISRDNAKNTVYLQMNSLKPEDTAVYYCNGDLEGYSNHETGDYWGQGTQVTVSS
notes: source: E. coli, purified
The molecule B6 returned an EC50 in assay [3] of 2 nM.

B7: JSI-A4 (VHH)
VHH: SGGGLVQAGGSLRLSCAASGLTFSDTAVGWFRQAPGKEREFVAAAVIWSGVNTRYADSVRGRFTISRDSAKNTVYLQMNTLKPEDTAIYYCAAGRGAAAFPTDRSQYVYWGQGTQVTVSS
notes: source: E. coli, purified
Take B7: the binding result in assay [1] is given as “no binding (tested: 125 nM)”.

B8: JLF-H5 (VHH)
VHH: QVQLVESGGGSVQPGGSLRLSCVASGFTFTNYAMAWVRQVSGKGLEGVAAISSEGFIYIPDSVKGRFTISRDNAKNTVYLQMDNLQSEDTAIYHCAAVDWKRVAAMNSYNMDYWGKGTPVTVSA
notes: source: E. coli, purified
Molecule B8 came in with an EC50 in assay [3] of 10 nM.

B9: JLE-G6 (VHH)
VHH: QLQLVETGGGLVKPGGSLRLSCVVSGFTFDDYRMAWVRQAPGKELEWVSSIDSWSINTYYEDSVKGRFTISTDNAKNTLYLQMSSLKPEDTAVYYCAAEDRLGVPTINAHPSKYDYNYWGQGTQVTVSS
notes: source: E. coli, purified
Molecule B9 registered an EC50 in assay [4] of 3 nM.

Usually EC50 stands for the concentration that produces a half-maximal response. A higher EC50 goes with weaker potency.
